Laboratory results as given in patent US20040191303A1, “Use of selectin-binding pregnancy proteins, liposomes, native mucin fragments and mimetic compounds for the treatment and prophylaxis inflammatory diseases, for preventing metastatic spread and for the prophylaxis of tumour diseases” (priority 2000, published 2004).

Assays:
[1] = tested on: cell adhesion; test: Testing of gestation proteins from various sources as adhesion blocker; assay type: cell-based
Source text: Testing of Gestation Proteins from Various Sources as Adhesion Blocker
The trophoblast culture line has been purchased and not subjected to genetic engineering.

[2] = tested on: activated HUVEC; test: Adhesion inhibition test: HepG2 hepatoma cells to IL-1β activated HUVEC; assay type: cell-based, human; settings: HepG2 cell adhesion
Experimental: The adhesion test described below is used in vitro to test the active substances.
HUVECs are isolated from veins of fresh human umbilical cords, used up to the 3rd passage, and cultured to confluence in 96-well titer plates for testing. Expression on HUVEC is induced by adding 0.2 ng of IL-1β per well, reaching its maximum after 4 hours. At this point, an adhesion test/adhesion inhibition test analogous to the one for immobilized E-selectin is performed.
The IC50 values (concentration of inhibiting agent for 50% inhibition of adhesion) are indicated.

Molecule | Adhesion blocking [1] | IC50 [2]
Serum Transferrin: transferrin from serum | No | –
Amniotic transferrin: transferrin recovered from the amniotic fluid | Yes | –
sialyl-Lewis x [sLe^x] | – | 2300 µM
Amniotic ✓-fetoprotein: α-fetoprotein from the amniotic fluid (protein, UniProt P02771 19-609, looked up) Alpha-fetoprotein: RTLHRNEYGIASILDSYQCTAEISLADLATIFFAQFVQEATYKEVSKMVKDALTAIEKPTGDEQSSGCLENQLPAFLEELCHEKEILEKYGHSDCCSQSEEGRHNCFLAHKKPTPASIPLFQVPEPVTSCEAYEEDRETFMNKFIYEIARRHPFLYAPTILLWAARYDKIIPSCCKAENAVECFQTKAATVTKELRESSLLNQHACAVMKNFGTRTFQAITVTKLSQKFTKVNFTEIQKLVLDVAHVHEHCCRGDVLDCLQDGEKIMSYICSQQDTLSNKITECCKLTTLERGQCIIHAENDEKPEGLSPNLNRFLGDRDFNQFSSGEKNIFLASFVHEYSRRHPQLAVSVILRVAKGYQELLEKCFQTENPLECQDKGEEELQKYIQESQALAKRSCGLFQKLGEYYLQNAFLVAYTKKAPQLTSSELMAITRKMAATAATCCQLSEDKLLACGEGAADIIIGHLCIRHEMTPVNPGVGQCCTSSYANRRPCFSSLVVDETYVPPAFSDDKFIFHKDLCQAQGVALQTMKQEFLINLVKQKPQITEEQLEAVIADFSGLLEKCCQGQEQEVCFAEEGQKLISKTRAALGV | Yes | –
Serum ✓-fetoprotein: α-fetoprotein from the serum of pregnant women (protein, UniProt P02771 19-609, looked up) Alpha-fetoprotein: RTLHRNEYGIASILDSYQCTAEISLADLATIFFAQFVQEATYKEVSKMVKDALTAIEKPTGDEQSSGCLENQLPAFLEELCHEKEILEKYGHSDCCSQSEEGRHNCFLAHKKPTPASIPLFQVPEPVTSCEAYEEDRETFMNKFIYEIARRHPFLYAPTILLWAARYDKIIPSCCKAENAVECFQTKAATVTKELRESSLLNQHACAVMKNFGTRTFQAITVTKLSQKFTKVNFTEIQKLVLDVAHVHEHCCRGDVLDCLQDGEKIMSYICSQQDTLSNKITECCKLTTLERGQCIIHAENDEKPEGLSPNLNRFLGDRDFNQFSSGEKNIFLASFVHEYSRRHPQLAVSVILRVAKGYQELLEKCFQTENPLECQDKGEEELQKYIQESQALAKRSCGLFQKLGEYYLQNAFLVAYTKKAPQLTSSELMAITRKMAATAATCCQLSEDKLLACGEGAADIIIGHLCIRHEMTPVNPGVGQCCTSSYANRRPCFSSLVVDETYVPPAFSDDKFIFHKDLCQAQGVALQTMKQEFLINLVKQKPQITEEQLEAVIADFSGLLEKCCQGQEQEVCFAEEGQKLISKTRAALGV | Yes | –
Urinary ✓-fetoprotein: α-fetoprotein from urine (protein, UniProt P02771 19-609, looked up) Alpha-fetoprotein: RTLHRNEYGIASILDSYQCTAEISLADLATIFFAQFVQEATYKEVSKMVKDALTAIEKPTGDEQSSGCLENQLPAFLEELCHEKEILEKYGHSDCCSQSEEGRHNCFLAHKKPTPASIPLFQVPEPVTSCEAYEEDRETFMNKFIYEIARRHPFLYAPTILLWAARYDKIIPSCCKAENAVECFQTKAATVTKELRESSLLNQHACAVMKNFGTRTFQAITVTKLSQKFTKVNFTEIQKLVLDVAHVHEHCCRGDVLDCLQDGEKIMSYICSQQDTLSNKITECCKLTTLERGQCIIHAENDEKPEGLSPNLNRFLGDRDFNQFSSGEKNIFLASFVHEYSRRHPQLAVSVILRVAKGYQELLEKCFQTENPLECQDKGEEELQKYIQESQALAKRSCGLFQKLGEYYLQNAFLVAYTKKAPQLTSSELMAITRKMAATAATCCQLSEDKLLACGEGAADIIIGHLCIRHEMTPVNPGVGQCCTSSYANRRPCFSSLVVDETYVPPAFSDDKFIFHKDLCQAQGVALQTMKQEFLINLVKQKPQITEEQLEAVIADFSGLLEKCCQGQEQEVCFAEEGQKLISKTRAALGV | No | –
Serum PP14: gestation protein pp14 from serum of pregnant women (protein, UniProt P09466 19-180, looked up) Glycodelin: MDIPQTKQDLELPKLAGTWHSMAMATNNISLMATLKAPLRVHITSLLPTPEDNLEIVLHRWENNSCVEKKVLGEKTENPKKFKINYTVANEATLLDTDYDNFLFLCLQDTTTPIQSMMCQYLARVLVEDDEIMQGFIRAFRPLPRHLWYLLDLKQMEEPCRF | Yes | –
Urinary PP14: gestation protein pp14 from urine of pregnant women (protein, UniProt P09466 19-180, looked up) Glycodelin: MDIPQTKQDLELPKLAGTWHSMAMATNNISLMATLKAPLRVHITSLLPTPEDNLEIVLHRWENNSCVEKKVLGEKTENPKKFKINYTVANEATLLDTDYDNFLFLCLQDTTTPIQSMMCQYLARVLVEDDEIMQGFIRAFRPLPRHLWYLLDLKQMEEPCRF | Yes | –
